Values joined by “and” are separate entries in the source; they are usually repeats but may differ in a detail not shown here. Equal entries are not always repeated.
Columns and labels:
TconTS2-LD = biological target: T1, TconTS2-LD (Trypanosoma congolense, UniProt W0YLD6); test: STD NMR; format: binding; details: 5.5 uM protein, 3.45 mM ligand; deuterated phosphate pD 7.4; site distinct from mannotriose site
T1 construct: gene TS2; C-terminal lectin-like domain without the CD-LD linker alpha-helix; N-terminal His-MBP and C-terminal SNAP-Strep tags kept; expressed in E. coli Rosetta pLacI

[1] = biological target: recombinant TconTS1 (Trypanosoma congolense trans-sialidase 1; CD, α-helix and LD) (Trypanosoma congolense); test: SEC; Superdex 200 10/300 GL, 10 mM phosphate buffer pH 7.4, 4°C, 0.5 mL/min, 100 to 300 μg TconTS in 500 μL, detection at 280 nm; column calibrated with gel filtration markers 29,000-700,000 Da; monomer, dimer and oligomer peaks
[2] = biological target: TconTS1 enzymatically deglycosylated with EndoHf (native conditions) (Trypanosoma congolense); test: as above
[3] = biological target: recombinant TconTS2 (Trypanosoma congolense trans-sialidase 2; CD, α-helix and LD) (Trypanosoma congolense); test: as above

`OC[C@H]1O[C@@H](O[C@H]2[C@H](O)[C@@H](O)[C@@H](O)O[C@@H]2CO)[C@H](O)[C@@H](O)[C@H]1O` [lactose, β-D-galactosyl-(1–4)-α-D-glucose] was tested. Which “STD NMR” value (TconTS2-LD) did it give?
Its value is “Binding of lactose to TconTS2-LD was also clearly observed (Fig 3B)”.

For “recombinant TconTS1 (Trypanosoma congolense trans-sialidase 1; CD, α-helix and LD) (enzyme)”, which ratio of monomer to dimer (monomer:dimer) [1] is on record?
The ratio of monomer to dimer (monomer:dimer) was 1.

And the stoichiometry N [1]?
Its stoichiometry N is 2 and 4.

Which stoichiometry N [2] does the source give for “TconTS1 enzymatically deglycosylated with EndoHf (native conditions) (enzyme)” here?
The stoichiometry N was 2.

For “recombinant TconTS2 (Trypanosoma congolense trans-sialidase 2; CD, α-helix and LD) (enzyme)”, which stoichiometry N [3] is on record?
The stoichiometry N was 2.
